Measured values: patent US20210105983A1

What was measured:
[1] = target: humanized PD-L1 polypeptide (human portion and endogenous mouse portion) on T cells of mice homozygous for the humanized CD274 gene of Example 1 (human; mouse) (UniProt Q9NZQ7); assay: flow cytometry, CD8+ T cells (CD3+CD8+) from spleen of humanized CD274 mouse, isotype control in α-hPD-L1 column
[2] = target: mouse PD-L1 polypeptide on T cells of wild-type mice (mouse) (UniProt Q9EP73); assay: flow cytometry, CD4+ T cells from spleen of wild-type mouse, isotype control in α-hPD-L1 column
[3] = target: mouse PD-L1 polypeptide on T cells of wild-type mice (mouse) (UniProt Q9EP73); assay: flow cytometry, CD8+ T cells from spleen of wild-type mouse, isotype control in α-hPD-L1 column
[4] = target: humanized PD-L1 polypeptide (human portion and endogenous mouse portion) on T cells of mice homozygous for the humanized CD274 gene of Example 1 (human; mouse) (UniProt Q9NZQ7); assay: flow cytometry, CD4+ T cells (CD3+CD4+) from spleen of humanized CD274 mouse, isotype control in α-hPD-L1 column
[5] = target: mouse PD-L1 polypeptide on T cells of wild-type mice (mouse) (UniProt Q9EP73); assay: flow cytometry, CD8+ T cells from spleen of wild-type mouse, isotype control in α-mPD-L1 column
[6] = target: mouse PD-L1 polypeptide on T cells of wild-type mice (mouse) (UniProt Q9EP73); assay: flow cytometry, CD4+ T cells from spleen of wild-type mouse, isotype control in α-mPD-L1 column
[7] = target: humanized PD-L1 polypeptide (human portion and endogenous mouse portion) on T cells of mice homozygous for the humanized CD274 gene of Example 1 (human; mouse) (UniProt Q9NZQ7); assay: flow cytometry, CD8+ T cells (CD3+CD8+) from spleen of humanized CD274 mouse, isotype control in α-mPD-L1 column
[8] = target: humanized PD-L1 polypeptide (human portion and endogenous mouse portion) on T cells of mice homozygous for the humanized CD274 gene of Example 1 (human; mouse) (UniProt Q9NZQ7); assay: flow cytometry, CD4+ T cells (CD3+CD4+) from spleen of humanized CD274 mouse, isotype control in α-mPD-L1 column
[9] = target: mouse PD-L1 polypeptide on T cells of wild-type mice (mouse) (UniProt Q9EP73); assay: flow cytometry, CD8+ T cells from spleen of wild-type mouse, stimulated with anti-CD3/anti-CD28 for 72 hours
[10] = target: mouse PD-L1 polypeptide on T cells of wild-type mice (mouse) (UniProt Q9EP73); assay: flow cytometry, CD4+ T cells from spleen of wild-type mouse, unstimulated
[11] = target: mouse PD-L1 polypeptide on T cells of wild-type mice (mouse) (UniProt Q9EP73); assay: flow cytometry, CD8+ T cells from spleen of wild-type mouse, unstimulated
[12] = target: mouse PD-L1 polypeptide on T cells of wild-type mice (mouse) (UniProt Q9EP73); assay: flow cytometry, CD4+ T cells from spleen of wild-type mouse, stimulated with anti-CD3/anti-CD28 for 72 hours
[13] = target: humanized PD-L1 polypeptide (human portion and endogenous mouse portion) on T cells of mice homozygous for the humanized CD274 gene of Example 1 (human; mouse) (UniProt Q9NZQ7); assay: flow cytometry, CD8+ T cells from spleen of humanized CD274 mouse, unstimulated
[14] = target: humanized PD-L1 polypeptide (human portion and endogenous mouse portion) on T cells of mice homozygous for the humanized CD274 gene of Example 1 (human; mouse) (UniProt Q9NZQ7); assay: flow cytometry, CD4+ T cells from spleen of humanized CD274 mouse, unstimulated
[15] = target: humanized PD-L1 polypeptide (human portion and endogenous mouse portion) on T cells of mice homozygous for the humanized CD274 gene of Example 1 (human; mouse) (UniProt Q9NZQ7); assay: flow cytometry, CD4+ T cells from spleen of humanized CD274 mouse, stimulated with anti-CD3/anti-CD28 for 72 hours
[16] = target: humanized PD-L1 polypeptide (human portion and endogenous mouse portion) on T cells of mice homozygous for the humanized CD274 gene of Example 1 (human; mouse) (UniProt Q9NZQ7); assay: flow cytometry, CD8+ T cells from spleen of humanized CD274 mouse, stimulated with anti-CD3/anti-CD28 for 72 hours

UniProt Q9EP73, sequence (Q9EP73 19-290): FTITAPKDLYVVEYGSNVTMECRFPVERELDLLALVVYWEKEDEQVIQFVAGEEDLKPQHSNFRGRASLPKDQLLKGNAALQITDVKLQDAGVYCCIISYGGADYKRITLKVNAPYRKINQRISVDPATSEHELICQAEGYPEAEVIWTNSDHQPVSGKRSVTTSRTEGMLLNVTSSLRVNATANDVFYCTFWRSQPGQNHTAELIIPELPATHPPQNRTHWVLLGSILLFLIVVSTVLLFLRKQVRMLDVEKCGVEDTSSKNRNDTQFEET
UniProt Q9NZQ7, sequence (Q9NZQ7 other isoform, or with tags, fused parts or gaps limits assumed): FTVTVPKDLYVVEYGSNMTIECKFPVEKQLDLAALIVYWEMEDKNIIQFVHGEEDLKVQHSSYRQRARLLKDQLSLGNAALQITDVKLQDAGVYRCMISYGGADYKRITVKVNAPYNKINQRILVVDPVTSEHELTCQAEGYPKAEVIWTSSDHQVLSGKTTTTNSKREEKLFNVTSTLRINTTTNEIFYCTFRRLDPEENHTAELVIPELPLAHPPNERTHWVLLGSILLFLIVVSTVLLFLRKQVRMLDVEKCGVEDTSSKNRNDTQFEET

In the case of “Isotype control (α-hPD-L1 columns of Table 5) (antibody)”, the Mean Fluorescence Intensity [1] is reported as 78, the Mean Fluorescence Intensity [2] is reported as -58 and the Mean Fluorescence Intensity [3] is reported as 64. It also gave a Mean Fluorescence Intensity [4] of -55.
“Isotype control (α-mPD-L1 columns of Table 5) (antibody)” gave a Mean Fluorescence Intensity [5] of 64, a Mean Fluorescence Intensity [6] of -39 and a Mean Fluorescence Intensity [7] of 84. For the same substance, the Mean Fluorescence Intensity [8] was -52.
For “anti-human PD-L1 antibody, clone MIH1 (BD Biosciences)”, the Mean Fluorescence Intensity [9] was 113, the Mean Fluorescence Intensity [10] was -45 and the Mean Fluorescence Intensity [11] was 62. The Mean Fluorescence Intensity [12] was 22, the Mean Fluorescence Intensity [13] was 271 and the Mean Fluorescence Intensity [14] was 114. For the same substance, the Mean Fluorescence Intensity [15] was 457 and the Mean Fluorescence Intensity [16] was 384.
Work on “anti-mouse PD-L1 antibody, clone 10F.9G2 (eBioscience)” yielded a Mean Fluorescence Intensity [9] of 3170, a Mean Fluorescence Intensity [10] of 538 and a Mean Fluorescence Intensity [11] of 712. It also gave a Mean Fluorescence Intensity [12] of 2800, a Mean Fluorescence Intensity [13] of 160 and a Mean Fluorescence Intensity [14] of 61. It also gave a Mean Fluorescence Intensity [15] of 155 and a Mean Fluorescence Intensity [16] of 276.
